Results reported in patent US10526416B2, “Anti-HER3 antibodies and uses of same” (Yeda Research and Development Co. Ltd., priority 2014, dated 2020).

B1: XC252: anti-HER3 mAb generated as described in Chen X, et al. (1996); heavy and light chain SEQ ID NOs: 49 and 53 (antibody, V domains shown)
VH: EVQLQQSGAELVRPGVSVKISCKGSGYTFTDYAMHWVKQSHAKSLEWIGVISTYYGDPRDNQKFKGKATMTVDKSSSTAYMELARLTSEDSAIYYCARGDYDWYAIDYWGQGTSVTVSS
VL: DVVMTQTPLSLPVSLGDQASISCRSSQSIVHSDGNTYLEWYLQKPGQSPKLLIYKVSNRFSGVPDRFSGSGSGTDFTLKISRVEAEDLGVYYCFQGSHVPPTFGGGTKLEIK
modifications: VH chain of XC252 polypeptide; VL chain of XC252 polypeptide
B2: NG83: anti-HER3 mAb; light chain CDRs SEQ ID NOs: 7-9, heavy chain CDRs 10-12 (antibody, V domains shown)
VH: QIQLVQSGPELKKRGETVKISCKASGYTFTNYGMNWVRQAPGKGLKCMGWINTYAGEPTYADDFKGRFAFSLDSSASTAYLQINNLKNEDMATYFCARGGITGAMDYWGQGTSVTVSS
VL: DVVMTQKTSSLSTSLGDRVTISCRASQDIRNYLNWYQQKPDGTVKLLIYYTSRLHSGVPSRFSGSGSGTDYSLTISDLEQEDIATYFCQQGNTLPWTFGGGTKLAIK
modifications: VH chain of NG83 polypeptide; VL chain of NG83 polypeptide

Tests used:
HER3 = HER3 (Homo sapiens, UniProt P21860); test: HER3 degradation in N87 cells (immunoblotting); format: cell-based; details: 3 h, 10 μg/ml mAb
Chain of HER3 (P21860 20-1342): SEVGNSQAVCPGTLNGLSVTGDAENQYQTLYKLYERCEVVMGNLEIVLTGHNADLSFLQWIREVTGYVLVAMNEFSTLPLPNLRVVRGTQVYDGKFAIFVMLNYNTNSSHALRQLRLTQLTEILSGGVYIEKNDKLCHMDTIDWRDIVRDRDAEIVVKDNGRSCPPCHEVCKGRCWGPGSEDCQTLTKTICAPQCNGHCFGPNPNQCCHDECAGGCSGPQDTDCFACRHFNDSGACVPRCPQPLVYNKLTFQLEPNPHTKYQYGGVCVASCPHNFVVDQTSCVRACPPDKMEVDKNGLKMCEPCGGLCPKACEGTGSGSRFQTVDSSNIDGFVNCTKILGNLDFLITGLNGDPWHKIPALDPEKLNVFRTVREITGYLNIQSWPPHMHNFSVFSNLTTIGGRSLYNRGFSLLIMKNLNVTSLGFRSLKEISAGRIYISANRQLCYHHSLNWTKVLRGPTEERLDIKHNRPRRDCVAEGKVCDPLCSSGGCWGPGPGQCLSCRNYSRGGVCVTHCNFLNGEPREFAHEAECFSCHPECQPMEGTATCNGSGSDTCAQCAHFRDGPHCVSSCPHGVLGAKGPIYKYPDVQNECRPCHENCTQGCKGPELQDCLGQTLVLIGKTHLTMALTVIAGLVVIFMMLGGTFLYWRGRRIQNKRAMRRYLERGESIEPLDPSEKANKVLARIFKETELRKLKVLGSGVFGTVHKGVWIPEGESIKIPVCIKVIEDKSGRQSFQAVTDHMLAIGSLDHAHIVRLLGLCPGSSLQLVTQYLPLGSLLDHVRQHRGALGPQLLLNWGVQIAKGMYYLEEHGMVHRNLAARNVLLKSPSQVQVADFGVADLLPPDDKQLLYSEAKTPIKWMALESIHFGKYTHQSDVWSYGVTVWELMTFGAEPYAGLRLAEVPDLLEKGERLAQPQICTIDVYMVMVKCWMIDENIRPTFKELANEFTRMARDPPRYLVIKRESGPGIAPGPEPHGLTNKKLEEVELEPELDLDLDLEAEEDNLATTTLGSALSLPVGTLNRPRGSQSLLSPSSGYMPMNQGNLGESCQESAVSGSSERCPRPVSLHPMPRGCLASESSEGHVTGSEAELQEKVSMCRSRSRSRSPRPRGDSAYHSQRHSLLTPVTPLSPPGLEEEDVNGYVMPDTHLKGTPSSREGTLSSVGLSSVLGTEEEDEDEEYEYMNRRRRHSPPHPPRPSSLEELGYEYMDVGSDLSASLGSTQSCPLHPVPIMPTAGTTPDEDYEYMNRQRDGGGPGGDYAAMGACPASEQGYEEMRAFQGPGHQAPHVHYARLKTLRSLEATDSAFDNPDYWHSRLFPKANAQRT
Protocol: (§1) (FIGS. 5A and 5B) The mAb ability to degrade HER3 after cell treatment was determined as follows. N87 cells were treated for 3 h at 37° C. with 10 μg/ml mAb. After cell lysis and protein extraction, the samples were subjected to immunoblotting with the indicated Ab. (FIG. 5C) The experiment shown in FIG. 5A was performed on 6 other cancer cell lines. (FIG. 5D) The mAb capacity to induce ADCC is reported. BXPC3-luc cells were incubated with the indicated mAbs and secondarily with human PBMC cells for 24 h. Cell killing was detected by measuring the luminescence after final addition of luciferine. *** […], ANOVA and post hoc tests.
NG33 and NRG abilities to degrade HER3 after cell treatment were determined as follows. […]
FIGS. 12A-D show a combination of two mAbs directed to two different epitopes of HER3. […] After ah incubation, the plate was washed 4 times with KREBS buffer, and the fluorescence intensity at 610 nm was measured using a fluorescence microplate reader. […] (FIG. 12D) The combination's capacity to modulate NRG-induced phosphorylation of HER3, AKT and ERK was evaluated using N87 cells. […] The cells were then lysed, and equal quantities of lysate protein were electrophoresed before immunoblotting, as indicated. […]
The capacity of the mAbs to decrease abundance of HER3 was determined using western blotting. […]

BXPC3-luc cells = test: Antibody-dependent cellular cytotoxicity (ADCC) luciferase assay with human PBMC; format: cell-based; details: 24 h
Protocol: as §1
ADCC was evaluated with a luciferase-activity assay. Using 96-well white plates, BXPC3-luc (4,000 cells/well) were pre-incubated for 30 min with the indicated antibodies. Ficoll-purified human peripheral blood mononuclear cells (PBMCs) from buffy coat were then added at a 10:1 effector to target cell ratio (E:T). […] Bioluminescence was determined using the Wallac Trilux 1450 Microbeta liquid scintillation and luminescence counter (Perkin-Elmer, MA). Percentage of cellular cytotoxicity was calculated using the following formula: percentage of specific lysis=[bioluminescence in experimental point−basal bioluminescence]/[bioluminescence in total lysis−basal bioluminescence]×100. […]

Molecule	HER3 degradation (HER3)	induction of ADCC (BXPC3-luc cells)
B1	caused HER3 degradation, but their impact was weaker	
B2		strongly or moderately induced ADCC
